{"source": "patent US20170173106A1", "about": "“Polypeptide Fragments of 168A-T2 and Compositions Comprising Them for Use in Treating Cancer” (GENE SIGNAL INTERNATIONAL SA, priority 2014, published 2017)", "key": {"HUVECs": {"test_system": "HUVECs", "test": "Migration test following the wound test", "format": "cell-based, human", "conditions": "66 μM (FIG. 3); 20 hrs", "method": "The migration of the cells was evaluated according to the wound test (Sato and Rifkin 1988 J Cell Biol 107, 1199-1205). HUVECs were cultivated to confluence in an EGM2-MV media. The wound width was measured using the software “Analysis” (Soft Imaging System Gmbh Digital, Olympus). Peptides to be tested were then added to the media.\nA wound has been performed with a chisel tip on the cell layer. The HUVECs migration following the addition of peptides was evaluated by the wound assay and the progress of the migration front of the HUVECs was analyzed after 20 hrs of culture. […] Pictures were shot with a microscope equipped with a camera (zoom ×40)."}, "CD9-CD9P-1 complex": {"molecular_target": "T1, CD9-CD9P-1 complex (Homo sapiens, UniProt P21926+Q9P2B2)", "T1 construct": "endogenous in cells; host or cells: HUVEC", "T1 sequence (Q9P2B2 26-879)": "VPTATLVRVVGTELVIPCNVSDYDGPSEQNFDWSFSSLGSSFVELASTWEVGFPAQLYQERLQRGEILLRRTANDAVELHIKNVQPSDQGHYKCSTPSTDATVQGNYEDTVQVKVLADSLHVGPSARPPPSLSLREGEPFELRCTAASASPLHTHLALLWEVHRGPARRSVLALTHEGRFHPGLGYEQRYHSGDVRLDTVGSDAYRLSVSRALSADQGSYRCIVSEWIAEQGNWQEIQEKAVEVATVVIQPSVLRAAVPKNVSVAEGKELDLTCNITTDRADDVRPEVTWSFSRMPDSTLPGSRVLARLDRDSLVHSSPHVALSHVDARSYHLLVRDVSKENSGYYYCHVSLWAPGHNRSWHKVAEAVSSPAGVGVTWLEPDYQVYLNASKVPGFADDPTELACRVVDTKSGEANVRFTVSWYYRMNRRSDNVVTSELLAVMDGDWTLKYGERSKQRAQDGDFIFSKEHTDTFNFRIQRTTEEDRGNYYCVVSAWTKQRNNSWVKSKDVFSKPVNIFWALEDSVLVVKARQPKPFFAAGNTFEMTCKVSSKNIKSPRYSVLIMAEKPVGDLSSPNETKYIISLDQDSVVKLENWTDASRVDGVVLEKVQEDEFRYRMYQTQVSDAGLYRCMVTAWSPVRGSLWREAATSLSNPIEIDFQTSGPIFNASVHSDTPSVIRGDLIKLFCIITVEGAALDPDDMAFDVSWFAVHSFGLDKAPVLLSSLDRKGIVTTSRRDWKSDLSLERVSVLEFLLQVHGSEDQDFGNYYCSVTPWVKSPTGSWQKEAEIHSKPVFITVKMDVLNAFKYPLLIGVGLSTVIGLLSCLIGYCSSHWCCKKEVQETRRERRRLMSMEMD", "T1 sequence (P21926 2-228 limits assumed)": "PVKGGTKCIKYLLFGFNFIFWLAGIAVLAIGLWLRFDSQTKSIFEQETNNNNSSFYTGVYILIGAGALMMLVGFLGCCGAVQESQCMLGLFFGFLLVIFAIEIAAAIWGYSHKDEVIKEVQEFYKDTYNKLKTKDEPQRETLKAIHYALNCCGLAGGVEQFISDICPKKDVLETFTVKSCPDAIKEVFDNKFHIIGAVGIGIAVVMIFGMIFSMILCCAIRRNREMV", "test": "Immunoprecipitation in HUVECs: CD9P-1 with CD9", "format": "cell-based", "conditions": "33 μM; 2 hrs", "method": "(§1) FIG. 13 is a photograph representing the dissociation of CD9-CD9P-1, CD9P-1-CD151 and CD9-CD151 complexes by P3 in HUVECs. HUVECs incubated for 2 h with 33 μM P3, PCT or solvent in EGM2-MV medium were lysed in brij 97 buffer, then CD81, CD9 or CD151 were immunoprecipitated with the corresponding antibody. Line A: Western blot results obtained with anti-CD9P-1 antibody from immunoprecipitated CD81, CD9 and CD151. Line B: Western blot results obtained with anti-CD9 antibody from immunoprecipitated CD81, CD9 and CD151. Line C: Western blot results obtained with anti-CD151 antibody from immunoprecipitated CD81, CD9 and CD151. PCT: control peptide. IP: immunoprecipitation.\n(§2) To study more precisely the effect of P3 on the associations of tetraspanins CD9, CD81, and CD151 between them and with CD9P-1, immunoprecipitation (IP) experiments were performed. In the control experiment (with the solvent), CD9P-1 co-precipitated with CD9 and CD81. A weak co-precipitation was observed between […] and CD151. The associations between tetraspanins and CD9P-1 are not modified under PCT condition. However, the interactions between CD9P-1 and CD9 and between CD9P-1 and CD151 are decreased while the HUVECs are incubated for 2 hrs with 33 μM of P3. The association between CD9P-1 and CD81 is not modified by P3 (FIG. 13A)."}, "CD9P-1-CD151 complex": {"molecular_target": "T2, CD9P-1-CD151 complex (Homo sapiens, UniProt P48509+Q9P2B2)", "T2 construct": "endogenous in cells; host or cells: HUVEC", "T2 sequence (Q9P2B2 26-879)": "T1 sequence (Q9P2B2 26-879)", "T2 sequence (P48509 1-253)": "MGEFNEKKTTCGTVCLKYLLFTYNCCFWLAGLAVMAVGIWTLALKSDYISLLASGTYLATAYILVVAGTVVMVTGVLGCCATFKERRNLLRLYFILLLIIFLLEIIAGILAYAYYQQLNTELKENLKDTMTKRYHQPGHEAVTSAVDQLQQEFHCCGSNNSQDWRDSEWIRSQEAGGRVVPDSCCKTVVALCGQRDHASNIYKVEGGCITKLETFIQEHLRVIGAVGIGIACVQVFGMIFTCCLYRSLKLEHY", "test": "Immunoprecipitation in HUVECs: CD9P-1 with CD151", "format": "cell-based", "conditions": "33 μM; 2 hrs", "method": "as §1, §2"}}}
{"sequence": "NQKGCYDLVT (control peptide) [PCT]", "values": [{"measurement": "wound closure / HUVECs migration", "setting": "HUVECs", "value": "completely closed"}, {"measurement": "interaction between CD9P-1 and CD9", "setting": "CD9-CD9P-1 complex", "value": "not modified"}, {"measurement": "interaction between CD9P-1 and CD151", "setting": "CD9P-1-CD151 complex", "value": "not modified"}]}
